Experimental findings from patent US20250215104A1 (WALDEN BIOSCIENCES, published 2025) are described below.

In assay [1] the target is T1, human soluble urokinase plasminogen activator receptor (hsuPAR) (human, UniProt Q03405 23-303, limits assumed).
T1 construct: also called human suPAR; rhuPAR-His
The assay is described as follows: BLI (Octet) off-rate screen of scFv. For orientation: In BLI a coated tip is dipped into the sample, and binding shifts an interference pattern.

Assay [2] addresses T2, cynomolgus soluble urokinase plasminogen activator receptor (cynomolgus suPAR) (cynomolgus, UniProt Q9GK78 23-303, limits assumed).
T2 construct: also called cynomolgus uPAR; cynoPLAUR-His
The assay is described as follows: BLI (Octet) off-rate screen of scFv.

The target of assay [3] is T3, cynomolgus soluble urokinase plasminogen activator receptor (suPAR) (cynomolgus, UniProt Q9GK78 23-303, limits assumed).
T3 construct: Column head says only 'cynomologus'; also called cynomolgus suPAR; cynomolgus uPAR
T3 sequence (Q9GK78 23-303 limits assumed): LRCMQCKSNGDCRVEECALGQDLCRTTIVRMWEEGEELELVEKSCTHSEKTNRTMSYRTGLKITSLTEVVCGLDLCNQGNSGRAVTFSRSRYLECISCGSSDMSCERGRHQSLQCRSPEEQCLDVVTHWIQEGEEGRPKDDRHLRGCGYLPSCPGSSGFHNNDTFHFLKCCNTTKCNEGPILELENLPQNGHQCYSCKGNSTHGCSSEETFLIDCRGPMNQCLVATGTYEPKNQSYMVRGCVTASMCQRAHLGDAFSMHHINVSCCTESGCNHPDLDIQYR
The assay is described as follows: BLI (Octet) off-rate screen of scFv clones.

In assay [4] the target is T4, human soluble urokinase plasminogen activator receptor (suPAR) (human, UniProt Q03405 23-303, limits assumed).
T4 construct: Column head says only 'human'; also called hsuPAR; human suPAR
T4 sequence (Q03405 23-303 limits assumed): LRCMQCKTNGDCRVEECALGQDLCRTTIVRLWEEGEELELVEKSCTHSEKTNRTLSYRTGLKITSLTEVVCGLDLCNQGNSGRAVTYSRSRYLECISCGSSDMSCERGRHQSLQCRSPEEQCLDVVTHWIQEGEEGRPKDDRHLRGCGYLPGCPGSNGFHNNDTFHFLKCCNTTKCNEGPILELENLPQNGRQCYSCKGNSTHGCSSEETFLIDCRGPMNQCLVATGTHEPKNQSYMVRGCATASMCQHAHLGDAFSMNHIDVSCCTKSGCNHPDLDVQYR
The assay is described as follows: BLI (Octet) off-rate screen of scFv clones.

T2 sequence (Q9GK78 23-303 limits assumed): as the sequence (Q9GK78 23-303 limits assumed) above
T1 sequence (Q03405 23-303 limits assumed): as the sequence (Q03405 23-303 limits assumed) above

B1: suPAR_DB02_A12 (scFv, V domains shown)
VH: QVQLVQSGAEVKKPGASVKVSCKASGYTFTNYYMHWVRQAPGQGLEWMGWIDHENGSTIYAQKFQGRVTMTRDTSTSTVYMELSSLRSEDTAVYYCARGYDMDWFVYWGQGTLVTVSS
VL: DIQMTQSPSSLSASVGDRVTITCSARSSVSYMYWYQQKPGKAPKLLIYRTSNLASGVPSRFSGSGSGTDFTLTISSLQPEDFATYYCQQYHSYPPTFGGGTKVEIK
notes: Screened as scFv
As to B1, the koff (usually the first-order rate constant of dissociation) in assay [1] was determined as 0.0017 s⁻¹; in assay [2] it was 2.26e-05 s⁻¹.

B2: suPAR_DB01_H08 (scFv, V domains shown)
VH: QVQLVQSGAEVKKPGASVKVSCKASGFNIKDYYIHWVRQAPGQGLEWMGWIDPNGGGTQYAQKFQGRVTMTRDTSTSTVYMELSSLRSEDTAVYYCARGYDVDWFVYWGQGTLVTVSS
VL: DIQMTQSPSSLSASVGDRVTITCRASSSVSYMYWYQQKPGKAPKLLIYRTSNLQSGVPSRFSGSGSGTDFTLTISSLQPEDFATYYCQQYHSYPPTFGGGTKVEIK
notes: Screened as scFv
As to B2, the koff was 0.00281 s⁻¹ in assay [1] and 0.00038 s⁻¹ in assay [2].

B3: suPAR_DB05_B12 (scFv, V domains shown)
VH: QVQLVQSGAEVKKPGASVKVSCKASGYTFTNYYMHWVRQAPGQGLEWMGWIDPENGNTIYAQKFQGRVTMTRDTSTSTVYMELSSLRSEDTAVYYCARGYDVDWFVYWGQGTLVTVSS
VL: DIQMTQSPSSLSASVGDRVTITCSARQSVSYMYWYQQKPGKAPKLLIYRTSNLASGVPSRFSGSGSGTDFTLTISSLQPEDFATYYCQQYHSYPPTFGGGTKVEIK
notes: Screened as scFv
In the case of B3, the values for the dissociation rate constant (koff) in assay [3] and in assay [4] were 0.000383 s⁻¹ and 0.00472 s⁻¹, respectively.

B4: suPAR_DB04_H06 (scFv, V domains shown)
VH: QVQLVQSGAEVKKPGASVKVSCKASGYTFTNYYVHWVRQAPGQGLEWMGWIDHENGNTSYAQKFQGRVTMTRDTSTSTVYMELSSLRSEDTAVYYCARGYDVDWFVYWGQGTLVTVSS
VL: DIQMTQSPSSLSASVGDRVTITCSARSSVSYMYWYQQKPGKAPKLLIYRTSNLQSGVPSRFSGSGSGTDFTLTISSLQPEDFATYYCQQYHSYPPTFGGGTKVEIK
notes: Screened as scFv
Turning to B4, the koff in assay [3] is 0.000289 s⁻¹; in assay [4] it was 0.00926 s⁻¹.

B5: suPAR_DB02_B07 (scFv, V domains shown)
VH: QVQLVQSGAEVKKPGASVKVSCKASGHTFSSYYMHWVRQAPGQGLEWMGWIDPENGNTIYAQKFQGRVTMTRDTSTSTVYMELSSLRSEDTAVYYCARGYDVDWFVYWGQGTLVTVSS
VL: DIQMTQSPSSLSASVGDRVTITCSARQSISYMYWYQQKPGKAPKLLIYRTSNLASGVPSRFSGSGSGTDFTLTISSLQPEDFATYYCQQYHSYPPTFGGGTKVEIK
notes: Screened as scFv
As for B5, the koff in assay [1] stood at 0.00447 s⁻¹; in assay [2] it was 8.12e-05 s⁻¹.

B6: suPAR_DB02_B06 (scFv, V domains shown)
VH: QVQLVQSGAEVKKPGASVKVSCKASGDTFTSYYMHWVRQAPGQGLEWMGWIDHEGGSTIYAQQFQGRVTMTRDTSTSTVYMELSSLRSEDTAVYYCARGYDVDWFVYWGQGTLVTVSS
VL: DIQMTQSPSSLSASVGDRVTITCSARSSVSYMYWYQQKPGKAPKLLIYRTSNLASGVPSRFSGSGSGTDFTLTISSLQPEDFATYYCQQYHSYPPTFGGGTKVEIK
notes: Screened as scFv
With B6, the koff in assay [1] was 0.00353 s⁻¹; in assay [2], 0.000127 s⁻¹.

B7: suPAR_DB02_B01 (scFv, V domains shown)
VH: QVQLVQSGAEVKKPGASVKVSCKASGYTFTGHYVHWVRQAPGQGLEWMGWIDHENGNTIYDQKFQGRVTMTRDTSTSTVYMELSSLRSEDTAVYYCARGYDVDWFVYWGQGTLVTVSS
VL: DIQMTQSPSSLSASVGDRVTITCSARQSVSYMYWYQQKPGKAPKLLIYRTSNLASGVPSRFSGSGSGTDFTLTISSLQPEDFATYYCQQYHSYPPTFGGGTKVEIK
notes: Screened as scFv
As to B7, the koff came to 0.00253 s⁻¹ in assay [1] and 0.000363 s⁻¹ in assay [2].

B8: suPAR_DB02_B03 (scFv, V domains shown)
VH: QVQLVQSGAEVKKPGASVKVSCKASGYTFIGNYIHWVRQAPGQGLEWMGWIDHENGSTIYDQKFQGRVTMTRDTSTSTVYMELSSLRSEDTAVYYCARGSDVDWFVYWGQGTLVTVSS
VL: DIQMTQSPSSLSASVGDRVTITCSARSSVSYMYWYQQKPGKAPKLLIYRTSNLASGVPSRFSGSGSGTDFTLTISSLQPEDFATYYCQQYHSYPPTFGGGTKVEIK
notes: Screened as scFv
Consider B8, for which the koff turned out to be 0.00088 s⁻¹ in assay [1] and 0.000424 s⁻¹ in assay [2].

B9: suPAR_DB02_B08 (scFv, V domains shown)
VH: QVQLVQSGAEVKKPGASVKVSCKASGYSFTNYYMHWVRQAPGQGLEWMGWIDHENGSTSYDQKFQGRVTMTRDTSTSTVYMELSSLRSEDTAVYYCARGYDVDWFVYWGQGTLVTVSS
VL: DIQMTQSPSSLSASVGDRVTITCSARSSVSYMYWYQQKPGKAPKLLIYRTSNLASGVPSRFSGSGSGTDFTLTISSLQPEDFATYYCQQYHSYPPTFGGGTKVEIK
notes: Screened as scFv
With B9, the koff came to 0.00155 s⁻¹ in assay [1] and 8.61e-05 s⁻¹ in assay [2].

B10: suPAR_DB02_C01 (scFv, V domains shown)
VH: QVQLVQSGAEVKKPGASVKVSCKASGYTFTGYYMHWVRQAPGQGLEWMGWIDPENGSTIYDQKFQGRVTMTRDTSTSTVYMELSSLRSEDTAVYYCARGYDVDWFVYWGQGTLVTVSS
VL: DIQMTQSPSSLSASVGDRVTITCRARQSVSYMYWYQQKPGKAPKLLIYRTSNLASGVPSRFSGSGSGTDFTLTISSLQPEDFATYYCQQYHSYPPTFGGGTKVEIK
notes: Screened as scFv
As to B10, the koff was determined as 0.00465 s⁻¹ in assay [1] and 0.00025 s⁻¹ in assay [2].

B11: suPAR_DB02_C04 (scFv, V domains shown)
VH: QVQLVQSGAEVKKPGASVKVSCKASGFNIKDYYIHWVRQAPGQGLEWMGWIDHEGGSTSYDQKFQGRVTMTRDTSTSTVYMELSSLRSEDTAVYYCARGYDVDWFVYWGQGTLVTVSS
VL: DIQMTQSPSSLSASVGDRVTITCSARSSVSYMYWYQQKPGKAPKLLIYRTSNLASGVPSRFSGSGSGTDFTLTISSLQPEDFATYYCQQYHSYPPTFGGGTKVEIK
notes: Screened as scFv
Take B11: the figures for the koff in assay [1] and in assay [2] were 0.00128 s⁻¹ and 0.00132 s⁻¹, respectively.

B12: suPAR_DB02_C02 (scFv, V domains shown)
VH: QVQLVQSGAEVKKPGASVKVSCKASGYTFKSYYMHWVRQAPGQGLEWMGWIDHENGNTIYDQKFQGRVTMTRDTSTSTVYMELSSLRSEDTAVYYCASGYDVDWFVYWGQGTLVTVSS
VL: DIQMTQSPSSLSASVGDRVTITCSARSSVSYMYWYQQKPGKAPKLLIYRTSNLASGVPSRFSGSGSGTDFTLTISSLQPEDFATYYCQQYHSYPPTFGGGTKVEIK
notes: Screened as scFv
B12: the results for the koff in assay [1] and in assay [2] were 0.00429 s⁻¹ and 3.58e-05 s⁻¹, respectively.

B13: suPAR_DB02_B05 (scFv, V domains shown)
VH: QVQLVQSGAEVKKPGASVKVSCKASGYTFTSYYMHWVRQAPGQGLEWMGWIDHENGNTSYAQKFQGRVTMTRDTSTSTVYMELSSLRSEDTAVYYCARGYDVDWFVYWGQGTLVTVSS
VL: DIQMTQSPSSLSASVGDRVTITCRARQSVSYMYWYQQKPGKAPKLLIYRTSNLASGVPSRFSGSGSGTDFTLTISSLQPEDFATYYCQQYHSYPPTFGGGTKVEIK
notes: Screened as scFv
Regarding B13, the koff is 0.0041 s⁻¹ in assay [1] and 0.000199 s⁻¹ in assay [2].

B14: suPAR_DB02_B10 (scFv, V domains shown)
VH: QVQLVQSGAEVKKPGASVKVSCKASGYTFTNYYMHWVRQAPGQGLEWMGWIDPENGNTSYDQKFQGRVTMTRDTSTSTVYMELSSLRSEDTAVYYCARGYDVDWFVYWGQGTLVTVSS
VL: DIQMTQSPSSLSASVGDRVTITCRARQSVSYMYWYQQKPGKAPKLLIYRTSNLASGVPSRFSGSGSGTDFTLTISSLQPEDFATYYCQQYHSYPPTFGGGTKVEIK
notes: Screened as scFv
Regarding B14, the koff in assay [1] stood at 0.00189 s⁻¹; in assay [2] it was 0.000434 s⁻¹.

B15: suPAR_DB04_H03 (scFv, V domains shown)
VH: QVQLVQSGAEVKKPGASVKVSCKASGYTFTGNYLHWVRQAPGQGLEWMGWIDHSNGSTIYDQKFQGRVTMTRDTSTSTVYMELSSLRSEDTAVYYCARGSDVDWFVYWGQGTLVTVSS
VL: DIQMTQSPSSLSASVGDRVTITCSASSSVSYMYWYQQKPGKAPKLLIYRTSNLASGVPSRFSGSGSGTDFTLTISSLQPEDFATYYCQQYHSYPPTFGGGTKVEIK
notes: Screened as scFv
On to B15, for which the koff in assay [3] came out at 0.000226 s⁻¹; in assay [4], 0.00134 s⁻¹.

B16: suPAR_DB02_C05 (scFv, V domains shown)
VH: QVQLVQSGAEVKKPGASVKVSCKASGGTFSSYYMHWVRQAPGQGLEWMGWIDHENGNTIYDQKFQGRVTMTRDTSTSTVYMELSSLRSEDTAVYYCARGYDVDWFVYWGQGTLVTVSS
VL: DIQMTQSPSSLSASVGDRVTITCSARSSVSYMYWYQQKPGKAPKLLIYRTSNLASGVPSRFSGSGSGTDFTLTISSLQPEDFATYYCQQYHSYPPTFGGGTKVEIK
notes: Screened as scFv
As to B16, the koff worked out at 0.00504 s⁻¹ in assay [1] and 0.000285 s⁻¹ in assay [2].

B17: suPAR_DB04_H05 (scFv, V domains shown)
VH: QVQLVQSGAEVKKPGASVKVSCKASGHTLNSYYMHWVRQAPGQGLEWMGWIDPEGGNTIYAQKFQGRVTMTRDTSTSTVYMELSSLRSEDTAVYYCARGYDVDWFVYWGQGTLVTVSS
VL: DIQMTQSPSSLSASVGDRVTITCSARSSVSYMYWYQQKPGKAPKLLIYRTSNLASGVPSRFSGSGSGTDFTLTISSLQPEDFATYYCQQYHSYPPTFGGGTKVEIK
notes: Screened as scFv
Take B17: the koff in assay [3] was determined as 0.000182 s⁻¹; in assay [4] it was 0.00584 s⁻¹.

B18: suPAR_DB02_B04 (scFv, V domains shown)
VH: QVQLVQSGAEVKKPGASVKVSCKASGYTFTGHYMHWVRQAPGQGLEWMGWIDHENGNTIYDQKFQGRVTMTRDTSTSTVYMELSSLRSEDTAVYYCARGYDVDWFVYWGQGTLVTVSS
VL: DIQMTQSPSSLSASVGDRVTITCSARSSVSYMYWYQQKPGKAPKLLIYRTSNLASGVPSRFSGSGSGTDFTLTISSLQPEDFATYYCQQYHSYPPTFGGGTKVEIK
notes: Screened as scFv
Regarding B18, the koff in assay [1] stood at 0.00477 s⁻¹; in assay [2], 0.000185 s⁻¹.

B19: suPAR_DB02_B09 (scFv, V domains shown)
VH: QVQLVQSGAEVKKPGASVKVSCKASGYTFTGYYVHWVRQAPGQGLEWMGWIDHSNGNTIYDQKFQGRVTMTRDTSTSTVYMELSSLRSEDTAVYYCASGYDVDWFVYWGQGTLVTVSS
VL: DIQMTQSPSSLSASVGDRVTITCSARSSVSYMYWYQQKPGKAPKLLIYRTSNLASGVPSRFSGSGSGTDFTLTISSLQPEDFATYYCQQYHSYPPTFGGGTKVEIK
notes: Screened as scFv
Consider B19, for which the koff turned out to be 0.00422 s⁻¹ in assay [1] and 0.000208 s⁻¹ in assay [2].
